In USRE46585 (LABORATOIRE FRANCAIS DU FRACTIONNEMENT ET DES …, dated 2017):
Positions count from the first letter of the chain named.

B1: C4A_36 (other)
chain: CPPCPAPELLGGPSVFLFPPKPKDTLMISRTPEVTCVVVDVSHEDPEVKFNWYVDGVEVHNAKTKPREEQYNSTYRVVSVLTVLHQDWLDGKEYTCKVSNKALPAPIEKTISKAKGQPREPQVYTLPPSRDELTKNQVSLTCLVKGFYPSDIAVEWESNGQPENNYKTTPPVLDSDGSFFLYSKLTVDKSRWQQGNVFSCSVMHEALHYHYTQKSLSLSPGK
notes: EU numbering
B2: M3A_34 (other)
chain: B1 chain with S42N, T82N, D90N, T95K, K145R, A153V, Y209N
notes: EU numbering
B3: C7A_02 (other)
chain: B1 chain with V39E, D90N, T95K, K145R, A153V
notes: EU numbering
B4: M3A_18 (other)
chain: B1 chain with T82P, D90N, T95K, A153V, N196T, Y209N
notes: EU numbering
B5: C5A_03 (other)
chain: B1 chain with V39A, T95K
notes: EU numbering
B6: C7A_22 (other)
chain: B1 chain with T95K, K109E, A153V
notes: EU numbering
B7: C8A_41 (other)
chain: B1 chain with T95K, E157V, H208P
notes: EU numbering
B8: C7A_37 (other)
chain: B1 chain with F16L, T95K, N164K
notes: EU numbering
B9: M3A_08 (other)
chain: B1 chain with V39E, T82P, D90N, T95K, A153T, V172M, Y209N
notes: EU numbering
B10: M3A_35 (other)
chain: B1 chain with V39E, T95K, P171L, Y209N
notes: EU numbering
B11: C7A_49 (other)
chain: B1 chain with T95K, A105V, T169A
notes: EU numbering
B12: C4A_41 (other)
chain: B1 chain with T95K, A105V, Q137E
notes: EU numbering
B13: C7A_43 (other)
chain: B1 chain with V39E, T82P, D90N, T95K, A153V, P171S, Y209S
notes: EU numbering
B14: M3B_04 (other)
chain: B1 chain with F16L, V39E, D90N, T95K, Q117R, A153V, Y209N
notes: EU numbering
B15: C5A_15 (other)
chain: B1 chain with V78A, T95K, A105V, E157V
notes: EU numbering
B16: C5A_63 (other)
chain: B1 chain with S73N, T95K, A105V
notes: EU numbering
B17: C7A_27 (other)
chain: B1 chain with V39E, T82N, D90N, T95K, A153V, V172M
notes: EU numbering
B18: M3A_21 (other)
chain: B1 chain with F16L, V39E, T82P, D90N, T95K, A153V, N196T, Y209N
notes: EU numbering
B19: M3B_23 (other)
chain: B1 chain with F16L, V39E, T82P, D90N, T95K, Y209N
notes: EU numbering
B20: C5A_12 (other)
chain: B1 chain with T95K, Q137E, N164K
notes: EU numbering
B21: C7A_68 (other)
chain: B1 chain with V39E, T95K, A153V, N165S, G195R
notes: EU numbering
B22: M3A_12 (other)
chain: B1 chain with T95K, Q137R, N196D, Y209S
notes: EU numbering
B23: T3A_08 (other)
chain: B1 chain with V39E, D90N, T95K, A153V, F179L, Y209N
notes: EU numbering
B24: C6A_04 (other)
chain: B1 chain with D90N, T95K, Q117R, E157V
notes: EU numbering
B25: C5A_75 (other)
chain: B1 chain with T82N, T95K
notes: EU numbering
B26: C6A_36 (other)
chain: B1 chain with T82P, T95K, E157G, Q194H
notes: EU numbering
B27: T3A_01 (other)
chain: B1 chain with V39E, T82P, D90N, T95K, A153V, N196T, Y209N
notes: EU numbering
B28: C5A_50 (other)
chain: B1 chain with D45N, T95K
notes: EU numbering
B29: C7A_13 (other)
chain: B1 chain with F16L, V39E, D90N, T95K, A153V, N196T
notes: EU numbering
B30: C5A_20 (other)
chain: B1 chain with T95K, S190D
notes: EU numbering
B31: C7A_89 (other)
chain: B1 chain with T82P, D90N, T95K, A102T, N164T, N196T
notes: EU numbering
B32: M3A_26 (other)
chain: B1 chain with V39E, T82P, D90N, T95K, K115E, Q117R, A153V, Y209N
notes: EU numbering
B33: C6A_05 (other)
chain: B1 chain with T82A, T95K, A105V
notes: EU numbering
B34: C5A_44 (other)
chain: B1 chain with T95K, N164K
notes: EU numbering
B35: C5A_58 (other)
chain: B1 chain with V39E, D90N, T95K, A153V, P171L, Y209S
notes: EU numbering
B36: C4A_45 (other)
chain: B1 chain with K21R, H60Y, T95K, A105V
notes: EU numbering
B37: C5A_41 (other)
chain: B1 chain with T95K, A102T, A105V, Q137R
notes: EU numbering
B38: C7A_18 (other)
chain: B1 chain with V39E, D90N, T95K, A153V, K189R, N196T
notes: EU numbering
B39: C6A_35 (other)
chain: B1 chain with T25A, T95K, A105V
notes: EU numbering
B40: C8A_14 (other)
chain: B1 chain with V80A, D90N, T95K, Q161R
notes: EU numbering
B41: T3A_10 (other)
chain: B1 chain with T95K, A105V, N164K
notes: EU numbering
B42: M3A_06 (other)
chain: B1 chain with F16L, V39E, D90N, T95K, A153T, V172M, Y209N
notes: EU numbering
B43: C5A_19 (other)
chain: B1 chain with V39A, V80A, T95K, A105V
notes: EU numbering
B44: C8A_61 (other)
chain: B1 chain with P5T, V39E, D90N, T95K, P171L
notes: EU numbering
B45: C8A_08 (other)
chain: B1 chain with V39A, T95K, A105V
notes: EU numbering

Key:
FcRn-p3 fusion protein [1] = target: T1, FcRn-p3 fusion protein (human, UniProt P55899 24-297; P61769 21-119); assay: phage ELISA pH6
T1 construct: baculovirus expressed; coated on ELISA wells; not shown: amino terminal part of bacteriophage p3 protein and CVDE protein
T1 sequence (P55899 24-297, chain 1 of 2): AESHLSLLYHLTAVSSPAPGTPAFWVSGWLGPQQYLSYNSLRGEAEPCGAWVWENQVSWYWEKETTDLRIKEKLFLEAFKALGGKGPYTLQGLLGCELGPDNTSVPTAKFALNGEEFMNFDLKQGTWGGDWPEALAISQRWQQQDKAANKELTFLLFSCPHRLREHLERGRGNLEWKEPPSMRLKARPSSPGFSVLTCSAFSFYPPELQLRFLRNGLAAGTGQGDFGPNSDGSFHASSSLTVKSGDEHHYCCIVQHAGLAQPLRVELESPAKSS
T1 sequence (P61769 21-119, chain 2 of 2): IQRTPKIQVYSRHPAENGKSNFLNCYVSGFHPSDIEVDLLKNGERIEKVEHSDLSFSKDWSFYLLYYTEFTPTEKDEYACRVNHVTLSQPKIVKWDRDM

FcRn-p3 fusion protein [2] = target: T1, FcRn-p3 fusion protein; assay: phage ELISA pH6 (est.)

| Binder | Ratio/Fc-H (FcRn-p3 fusion protein [1]) [fold] | Ratio/FWT (FcRn-p3 fusion protein [2]) [fold] |
| --- | --- | --- |
| B1 | 2.8 | 8.9 |
| B2 | 1.3 | 4.3 |
| B3 | 2.2 | 6.9 |
| B4 | 1.9 | 6.2 |
| B5 | 2.7 | 8.7 |
| B6 | 1.8 | 5.7 |
| B7 | 2.7 | 8.8 |
| B8 | 2.2 | 6.9 |
| B9 | 1.7 | 5.6 |
| B10 | 1.1 | 3.7 |
| B11 | 1.7 | 5.3 |
| B12 | 3.4 | 10.8 |
| B13 | 3.6 | 11.5 |
| B14 | 1.7 | 5.5 |
| B15 | 3.4 | 10.9 |
| B16 | 2 | 6.3 |
| B17 | 2.6 | 8.2 |
| B18 | 2.6 | 8.4 |
| B19 | 1.2 | 3.8 |
| B20 | 3.8 | 12.1 |
| B21 | 3.4 | 10.9 |
| B22 | 1.1 | 3.4 |
| B23 | 1.1 | 3.5 |

| Binder | Ratio/Fc-H (FcRn-p3 fusion protein [1]) [fold] | Ratio/FWT (FcRn-p3 fusion protein [2]) [fold] |
| --- | --- | --- |
| B24 | 2.9 | 9.4 |
| B25 | 2.8 | 8.9 |
| B26 | 3.4 | 10.9 |
| B27 | 2.4 | 7.8 |
| B28 | 2.3 | 7.3 |
| B29 | 2.3 | 7.4 |
| B30 | 2.6 | 8.4 |
| B31 | 2.3 | 7.4 |
| B32 | 1.8 | 5.6 |
| B33 | 1.9 | 6.2 |
| B34 | 2.7 | 8.7 |
| B35 | 2.8 | 9.1 |
| B36 | 2.3 | 7.2 |
| B37 | 1.3 | 4.3 |
| B38 | 2.8 | 8.9 |
| B39 | 1.8 | 5.7 |
| B40 | 2.4 | 7.6 |
| B41 | 2.4 | 7.8 |
| B42 | 1.8 | 5.7 |
| B43 | 2.9 | 9.3 |
| B44 | 1.7 | 5.5 |
| B45 | 2 | 6.4 |
